Results as given in patent US20230391861A1 (Stanford University, published 2023).
Positions count from the first letter of the chain named.

T1: PTCH1 on NIH-3T3 / 3T3-Light2 cells (UniProt Q61115 1-1434, limits assumed)
T1 sequence (looked up): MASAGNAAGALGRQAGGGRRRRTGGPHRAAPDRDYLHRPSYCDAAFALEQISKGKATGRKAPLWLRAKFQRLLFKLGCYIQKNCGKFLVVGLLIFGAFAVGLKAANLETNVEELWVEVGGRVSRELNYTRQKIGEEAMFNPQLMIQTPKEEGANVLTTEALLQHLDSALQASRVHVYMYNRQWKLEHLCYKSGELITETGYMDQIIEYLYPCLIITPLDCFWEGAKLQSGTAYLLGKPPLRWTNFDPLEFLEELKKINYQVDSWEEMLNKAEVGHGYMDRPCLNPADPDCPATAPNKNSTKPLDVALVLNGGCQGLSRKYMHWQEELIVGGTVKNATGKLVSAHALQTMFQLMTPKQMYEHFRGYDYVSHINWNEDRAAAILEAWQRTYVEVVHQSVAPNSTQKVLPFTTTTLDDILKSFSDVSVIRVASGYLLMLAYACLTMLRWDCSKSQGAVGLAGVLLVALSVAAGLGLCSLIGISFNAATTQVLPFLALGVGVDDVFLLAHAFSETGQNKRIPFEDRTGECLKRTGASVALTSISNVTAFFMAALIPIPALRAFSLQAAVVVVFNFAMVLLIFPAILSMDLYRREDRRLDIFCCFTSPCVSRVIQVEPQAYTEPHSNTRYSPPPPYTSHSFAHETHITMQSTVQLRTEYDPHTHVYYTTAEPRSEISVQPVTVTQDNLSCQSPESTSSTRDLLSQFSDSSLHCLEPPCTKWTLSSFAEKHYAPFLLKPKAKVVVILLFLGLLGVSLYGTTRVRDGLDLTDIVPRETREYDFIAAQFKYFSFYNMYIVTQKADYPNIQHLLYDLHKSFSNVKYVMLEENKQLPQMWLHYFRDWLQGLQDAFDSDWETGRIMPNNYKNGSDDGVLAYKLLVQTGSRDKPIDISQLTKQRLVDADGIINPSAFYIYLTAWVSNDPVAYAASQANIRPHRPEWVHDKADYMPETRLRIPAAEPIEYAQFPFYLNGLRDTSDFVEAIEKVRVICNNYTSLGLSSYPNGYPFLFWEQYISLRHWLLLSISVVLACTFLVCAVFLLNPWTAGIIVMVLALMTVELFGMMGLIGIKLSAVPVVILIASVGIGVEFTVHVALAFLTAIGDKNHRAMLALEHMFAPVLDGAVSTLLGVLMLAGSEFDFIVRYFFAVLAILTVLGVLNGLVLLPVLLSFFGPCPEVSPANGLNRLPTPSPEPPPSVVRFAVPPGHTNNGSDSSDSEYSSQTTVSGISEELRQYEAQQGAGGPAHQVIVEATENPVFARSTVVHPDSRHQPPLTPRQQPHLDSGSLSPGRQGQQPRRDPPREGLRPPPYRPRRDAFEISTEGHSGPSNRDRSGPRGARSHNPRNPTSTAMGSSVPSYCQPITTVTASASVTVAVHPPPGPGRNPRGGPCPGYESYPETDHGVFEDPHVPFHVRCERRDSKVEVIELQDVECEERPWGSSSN

T2: Ptch1-C-NNQ (Ptch1-C with D499N, D500N, E1081Q) (mouse, UniProt Q61115 1-618; Q61115 712-1173)
T2 construct: range 1-618;range 712-1173; also called PTCH1-NNQ; NNQ variant; not shown: 1D4 tag
T2 sequence (looked up): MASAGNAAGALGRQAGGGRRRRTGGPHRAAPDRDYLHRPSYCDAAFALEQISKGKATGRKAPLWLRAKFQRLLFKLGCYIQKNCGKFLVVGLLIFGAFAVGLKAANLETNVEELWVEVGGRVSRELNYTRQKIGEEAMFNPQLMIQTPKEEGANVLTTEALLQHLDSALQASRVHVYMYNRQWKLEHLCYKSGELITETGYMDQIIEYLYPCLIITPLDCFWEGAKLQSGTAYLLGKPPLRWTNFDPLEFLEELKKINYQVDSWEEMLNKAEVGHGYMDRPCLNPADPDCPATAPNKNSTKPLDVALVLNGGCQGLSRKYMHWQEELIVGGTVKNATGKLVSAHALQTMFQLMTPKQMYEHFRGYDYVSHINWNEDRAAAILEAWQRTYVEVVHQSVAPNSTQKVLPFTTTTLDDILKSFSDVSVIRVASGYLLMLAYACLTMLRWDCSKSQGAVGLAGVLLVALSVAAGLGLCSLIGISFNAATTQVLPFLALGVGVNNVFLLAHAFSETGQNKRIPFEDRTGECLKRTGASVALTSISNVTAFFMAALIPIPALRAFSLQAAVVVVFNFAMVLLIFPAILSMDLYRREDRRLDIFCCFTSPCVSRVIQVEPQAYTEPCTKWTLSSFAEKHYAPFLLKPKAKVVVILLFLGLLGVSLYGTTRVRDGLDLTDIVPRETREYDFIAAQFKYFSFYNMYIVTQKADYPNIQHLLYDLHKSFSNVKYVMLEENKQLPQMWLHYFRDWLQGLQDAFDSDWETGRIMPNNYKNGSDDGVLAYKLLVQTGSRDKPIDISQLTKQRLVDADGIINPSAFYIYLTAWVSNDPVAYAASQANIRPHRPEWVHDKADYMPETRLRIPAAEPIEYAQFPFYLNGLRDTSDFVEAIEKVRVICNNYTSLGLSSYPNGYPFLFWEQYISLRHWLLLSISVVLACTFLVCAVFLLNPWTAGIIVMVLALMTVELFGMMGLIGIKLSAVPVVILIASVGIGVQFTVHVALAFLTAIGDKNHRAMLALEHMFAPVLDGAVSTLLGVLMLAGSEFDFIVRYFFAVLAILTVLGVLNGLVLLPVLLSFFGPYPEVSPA

T3: Human PTCH1 on HEPM cells (human, UniProt Q13635 1-1447)
T3 sequence (looked up): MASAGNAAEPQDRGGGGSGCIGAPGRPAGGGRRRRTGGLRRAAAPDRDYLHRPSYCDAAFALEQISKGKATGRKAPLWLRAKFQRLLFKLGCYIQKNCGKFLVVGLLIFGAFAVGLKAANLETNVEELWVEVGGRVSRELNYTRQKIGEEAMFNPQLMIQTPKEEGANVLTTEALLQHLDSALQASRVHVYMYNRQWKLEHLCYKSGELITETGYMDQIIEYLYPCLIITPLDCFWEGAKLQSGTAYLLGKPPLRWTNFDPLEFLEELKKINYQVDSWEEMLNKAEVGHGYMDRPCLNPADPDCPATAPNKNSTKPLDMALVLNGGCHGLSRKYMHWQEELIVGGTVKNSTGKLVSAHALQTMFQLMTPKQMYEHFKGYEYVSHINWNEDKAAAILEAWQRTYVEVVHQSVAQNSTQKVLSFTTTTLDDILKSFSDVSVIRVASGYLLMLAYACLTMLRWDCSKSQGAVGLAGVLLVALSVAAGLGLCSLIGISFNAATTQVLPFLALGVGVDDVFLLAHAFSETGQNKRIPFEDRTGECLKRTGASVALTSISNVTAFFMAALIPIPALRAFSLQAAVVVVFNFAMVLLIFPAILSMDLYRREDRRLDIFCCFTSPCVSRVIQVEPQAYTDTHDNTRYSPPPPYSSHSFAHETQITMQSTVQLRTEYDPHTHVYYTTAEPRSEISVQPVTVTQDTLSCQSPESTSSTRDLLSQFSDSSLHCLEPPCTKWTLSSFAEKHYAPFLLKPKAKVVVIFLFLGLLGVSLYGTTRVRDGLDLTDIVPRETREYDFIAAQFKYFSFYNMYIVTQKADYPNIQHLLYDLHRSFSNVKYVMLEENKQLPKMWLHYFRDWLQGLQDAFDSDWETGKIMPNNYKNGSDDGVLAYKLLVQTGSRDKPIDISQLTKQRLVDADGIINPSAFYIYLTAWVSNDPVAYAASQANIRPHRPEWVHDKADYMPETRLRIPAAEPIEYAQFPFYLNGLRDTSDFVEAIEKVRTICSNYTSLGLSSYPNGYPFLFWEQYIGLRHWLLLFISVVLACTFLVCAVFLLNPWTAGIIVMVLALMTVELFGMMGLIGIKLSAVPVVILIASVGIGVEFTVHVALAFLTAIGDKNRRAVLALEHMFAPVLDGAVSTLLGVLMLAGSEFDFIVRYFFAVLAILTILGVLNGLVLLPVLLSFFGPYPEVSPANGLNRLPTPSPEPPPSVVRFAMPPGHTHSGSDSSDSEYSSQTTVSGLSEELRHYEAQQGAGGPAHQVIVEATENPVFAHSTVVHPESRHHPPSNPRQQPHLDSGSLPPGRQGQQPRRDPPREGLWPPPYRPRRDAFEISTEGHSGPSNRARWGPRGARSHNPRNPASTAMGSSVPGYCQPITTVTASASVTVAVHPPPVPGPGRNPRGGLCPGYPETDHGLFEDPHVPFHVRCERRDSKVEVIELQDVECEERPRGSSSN

B1: T23 nanobody (VHH)
VHH: QVQLQESGGGLVQAGGSLRLSCAASGNIFAYYIMGWYRQAPGKERELVATIDIGGNTNYADSVKGRFTISRDNAKNTVYLQMNSLKPEDTAVYYCAVQAVPYRYRRYWGQGTQVTVSS
notes: also called 23T
B2: Nanobody clone 23 (VHH)
VHH: B1 VHH with T50G, R105H, R106G
notes: Initial clone from the synthetic yeast display library; also called Nb23; NB23
B3: TI23 nanobody (VHH)
VHH: B1 VHH with T77N, Y102I

Tests used:
[1] = target: T1, PTCH1 on NIH-3T3 / 3T3-Light2 cells; assay: cell-based or functional assay
[2] = target: T2, Ptch1-C-NNQ (Ptch1-C with D499N, D500N, …); assay: two-color staining of yeast cells expressing the variants
[3] = target: T3, Human PTCH1 on HEPM cells; assay: cell-based or functional assay

Row | Molecule | EC50, Gli-luciferase assay in NIH-3T3 cells [1] [nM] | binding result [2] | further results
1 | ShhNp (ligand) | 1.4 | – | –
2 | B1 | – | binds | –
3 | B2 | – | binds | –
4 | B3 | 6.9 | – | EC50, Gli-dependent luciferase reporter in 3T3 cells [1]: 8.6 nM; maximum response relative to ShhNp, Gli-luciferase assay [1]: ~75%; EC50, transcription of GLI1 in HEPM cells (qPCR) [3]: 16 nM; EC50, transcription of PTCH1 in HEPM cells (qPCR) [3]: 18.5 nM
